This is an account of results in PMC7367873, “Dissecting the sequence determinants for dephosphorylation by the catalytic subunits of phosphatases PP1 and PP2A” (Nature Communications, 2020).

The test system of assay [1] is GFP-14-3-3β and its binding proteins. As to the kind of experiment: GFP-14-3-3β co-IP with LC-MS/MS label-free quantification, untreated versus PP1c-treated. Set-up: species or system human. The conditions noted are these: PP1 vs untreated; label-free quantification. As to the method: (§1) HeLa Kyoto cells expressing transiently transfected pEGFP(C1)-14-3-3β or pEGFP(C1) control plasmid, were incubated with 20 nM Calyculin A (# 9902 S, Cell Signaling Technology) for 12 min. Cells were washed twice on ice with cold PBS and after addition of 500 µL lysis buffer (100 mM NaCl, 10 mM Tris, 0.1% IGEPAL, 1 mM EDTA, 1 mM EGTA, 20 nM Calyculin A, 1x cOmplete Mini protease inhibitor cocktail (Sigma), 1 mM DTT, 1 mM MnCl2) cells were scraped from plates, lysed by 10 pushes through an injection needle (21 G, BD) and the insoluble fraction was pelleted by centrifugation (10 min, 10^4 rcf, 4 °C). Supernatants were then subjected to incubation with 1 µM recombinant phosphatase or buffer for 1 h at 30 °C. Next, we subjected samples to immunoprecipitation using α-GFP nanobodies covalently coupled to agarose beads (2 h, 4 °C, obtained from the EMBL PEPcore Core Facility). Beads were then washed three times with lysis buffer and samples were eluted in 1x LDS sample buffer (Thermo Fisher Scientific) by heating to 70 °C for 10 min.
(§2) The samples were then reduced with 25 mM dithiothreitol (10 min at 70 °C) and alkylated with 55 mM chloroacetamide (room temperature, 30 min, in the dark). Proteins were run on a precast 4–12% NuPAGE gel (ThermoFisher Scientific) for about 1 cm to concentrate the sample prior to in-gel tryptic digestion, which was performed according to the standard procedures. The peptides obtained were dried to completeness and resuspended in 12 µL of buffer A (0.1% FA), and 5 µL of sample were injected per MS measurement. The experiment was carried out in three independent replicates.
(§3) The samples were analyzed by LC-MS/MS on a Dionex Ultimate 3000 nano-HPLC coupled online to a Fusion Lumos Tribrid mass spectrometer (Thermo Fisher Scientific). Peptides were delivered to a trap column (75 µm × 2 cm, packed in-house with 5 µm C18 resin; Reprosil PUR AQ, Dr. Maisch) and washed using 0.1% FA at a flow rate of 5 µL/min for 10 min. Subsequently, peptides were transferred to an analytical column (75 µm × 45 cm, packed in-house with 3 µm C18 resin; Reprosil Gold) applying a flow rate of 300 nL/min and separated using a 60 min linear gradient from 4% to 32% LC solvent B (0.1% FA, 5% DMSO in ACN) in LC solvent A (0.1% FA in 5% DMSO). The eluate from the analytical column was sprayed via a stainless steel emitter (Thermo Fisher Scientific) at a source voltage of 2.1 kV into the mass spectrometer. The transfer capillary was heated to 275 °C. The Fusion Lumos was operated in positive ionization mode and data-dependent acquisition (DDA), automatically switching between MS1 and MS2 spectrum acquisition. Full scan MS1 spectra were recorded in the Orbitrap from 360 to 1300 m/z at a resolution of 60k (automatic gain control (AGC) target value of 4e5 charges, maximum injection time (maxIT) of 50 ms). Up to 20 peptide precursors were isolated (isolation window, 1.7 m/z; maximum injection time, 25 ms; and AGC value, 1e5), fragmented by high-energy collision-induced dissociation (HCD) using 30% normalized collision energy (NCE), and analyzed at a resolution of 15k in the Orbitrap. Precursor ions that were singly charged, unassigned, or with charge states >6+ were excluded. The dynamic exclusion duration of fragmented precursor ions was 20 s.
(§4) Peptide and protein identification and LFQ were performed using MaxQuant software (version 1.6.1.0)[64] by searching the data against all canonical protein sequences as annotated in the Swissprot reference database (human proteins only, 20193 entries, downloaded 22 March 2016, internally annotated with PFAM domains) using the embedded search engine Andromeda[65]. The MaxQuant search was performed using two variable modifications; oxidation of methionine and N-terminal protein acetylation. Carbamidomethylation on cysteines was specified as a fixed modification. Trypsin (Trypsin/P) was specified as the proteolytic enzyme with up to two allowed missed cleavage sites.

The test system of assay [2] is GFP-14-3-3β. As to the kind of experiment: GFP-14-3-3β co-IP with LC-MS/MS, untreated GFP-14-3-3β versus GFP control (14-3-3 interactome). As to conditions: untreated vs GFP; label-free quantification. Type of assay: binding, human. The method, then: as §1, §2, §3, §4

B1: DARS (protein, UniProt P14868 1-501, looked up)
Aspartate--tRNA ligase, …: MPSASASRKSQEKPREIMDAAEDYAKERYGISSMIQSQEKPDRVLVRVRDLTIQKADEVVWVRARVHTSRAKGKQCFLVLRQQQFNVQALVAVGDHASKQMVKFAANINKESIVDVEGVVRKVNQKIGSCTQQDVELHVQKIYVISLAEPRLPLQLDDAVRPEAEGEEEGRATVNQDTRLDNRVIDLRTSTSQAVFRLQSGICHLFRETLINKGFVEIQTPKIISAASEGGANVFTVSYFKNNAYLAQSPQLYKQMCICADFEKVFSIGPVFRAEDSNTHRHLTEFVGLDIEMAFNYHYHEVMEEIADTMVQIFKGLQERFQTEIQTVNKQFPCEPFKFLEPTLRLEYCEALAMLREAGVEMGDEDDLSTPNEKLLGHLVKEKYDTDFYILDKYPLAVRPFYTMPDPRNPKQSNSYDMFMRGEEILSGAQRIHDPQLLTERALHHGIDLEKIKAYIDSFRFGAPPHAGGGIGLERVTMLFLGLHNVRQTSMFPRDPKRLTP
As to B1, the “Difference (log2), PP1 vs untreated” value in assay [1] turned out to be 1.065 log2. In addition, the “Difference (log2), untreated vs GFP” value in assay [2] is -1.63 log2.

B2: ABCD3 (protein, UniProt P28288 1-659, looked up)
ATP-binding cassette …: MAAFSKYLTARNSSLAGAAFLLLCLLHKRRRALGLHGKKSGKPPLQNNEKEGKKERAVVDKVFFSRLIQILKIMVPRTFCKETGYLVLIAVMLVSRTYCDVWMIQNGTLIESGIIGRSRKDFKRYLLNFIAAMPLISLVNNFLKYGLNELKLCFRVRLTKYLYEEYLQAFTYYKMGNLDNRIANPDQLLTQDVEKFCNSVVDLYSNLSKPFLDIVLYIFKLTSAIGAQGPASMMAYLVVSGLFLTRLRRPIGKMTITEQKYEGEYRYVNSRLITNSEEIAFYNGNKREKQTVHSVFRKLVEHLHNFILFRFSMGFIDSIIAKYLATVVGYLVVSRPFLDLSHPRHLKSTHSELLEDYYQSGRMLLRMSQALGRIVLAGREMTRLAGFTARITELMQVLKDLNHGKYERTMVSQQEKGIEGVQVIPLIPGAGEIIIADNIIKFDHVPLATPNGDVLIRDLNFEVRSGANVLICGPNGCGKSSLFRVLGELWPLFGGRLTKPERGKLFYVPQRPYMTLGTLRDQVIYPDGREDQKRKGISDLVLKEYLDNVQLGHILEREGGWDSVQDWMDVLSGGEKQRMAMARLFYHKPQFAILDECTSAVSVDVEGYIYSHCRKVGITLFTVSHRKSLWKHHEYYLHMDGRGNYEFKQITEDTVEFGS
With B2, the “Difference (log2), PP1 vs untreated” value in assay [1] was 1.116 log2. Moreover, the “Difference (log2), untreated vs GFP” value in assay [2] was -0.7267 log2.

B3: RTCB (protein, UniProt Q9Y3I0 1-505, looked up)
RNA-splicing ligase RtcB …: MSRSYNDELQFLEKINKNCWRIKKGFVPNMQVEGVFYVNDALEKLMFEELRNACRGGGVGGFLPAMKQIGNVAALPGIVHRSIGLPDVHSGYGFAIGNMAAFDMNDPEAVVSPGGVGFDINCGVRLLRTNLDESDVQPVKEQLAQAMFDHIPVGVGSKGVIPMNAKDLEEALEMGVDWSLREGYAWAEDKEHCEEYGRMLQADPNKVSARAKKRGLPQLGTLGAGNHYAEIQVVDEIFNEYAAKKMGIDHKGQVCVMIHSGSRGLGHQVATDALVAMEKAMKRDKIIVNDRQLACARIASPEGQDYLKGMAAAGNYAWVNRSSMTFLTRQAFAKVFNTTPDDLDLHVIYDVSHNIAKVEQHVVDGKERTLLVHRKGSTRAFPPHHPLIAVDYQLTGQPVLIGGTMGTCSYVLTGTEQGMTETFGTTCHGAGRALSRAKSRRNLDFQDVLDKLADMGIAIRVASPKLVMEEAPESYKNVTDVVNTCHDAGISKKAIKLRPIAVIKG
On to B3, for which the “Difference (log2), PP1 vs untreated” value in assay [1] is given as 1.104 log2. Besides, the “Difference (log2), untreated vs GFP” value in assay [2] is reported as -0.6754 log2.

B4: BANF1 (protein, UniProt O75531 1-89, looked up)
Barrier-to-autointegration …: MTTSQKHRDFVAEPMGEKPVGSLAGIGEVLGKKLEERGFDKAYVVLGQFLVLKKDEDLFREWLKDTCGANAKQSRDCFGCLREWCDAFL
In the case of B4, the “Difference (log2), PP1 vs untreated” value in assay [1] came out at 1.068 log2. In assay [2], the “Difference (log2), untreated vs GFP” value is listed as -2.499 log2.

B5: TMEM43 (protein, UniProt Q9BTV4 2-400, looked up)
Transmembrane protein 43: AANYSSTSTRREHVKVKTSSQPGFLERLSETSGGMFVGLMAFLLSFYLIFTNEGRALKTATSLAEGLSLVVSPDSIHSVAPENEGRLVHIIGALRTSKLLSDPNYGVHLPAVKLRRHVEMYQWVETEESREYTEDGQVKKETRYSYNTEWRSEIINSKNFDREIGHKNPSAMAVESFMATAPFVQIGRFFLSSGLIDKVDNFKSLSLSKLEDPHVDIIRRGDFFYHSENPKYPEVGDLRVSFSYAGLSGDDPDLGPAHVVTVIARQRGDQLVPFSTKSGDTLLLLHHGDFSAEEVFHRELRSNSMKTWGLRAAGWMAMFMGLNLMTRILYTLVDWFPVFRDLVNIGLKAFAFCVATSLTLLTVAAGWLFYRPLWALLIAGLALVPILVARTRVPAKKLE
B5: the “Difference (log2), PP1 vs untreated” value in assay [1] is 1.071 log2. For the same molecule, the “Difference (log2), untreated vs GFP” value in assay [2] was -0.2983 log2.

B6: LGALS3BP (protein, UniProt Q08380 19-585, looked up)
Galectin-3-binding protein: VNDGDMRLADGGATNQGRVEIFYRGQWGTVCDNLWDLTDASVVCRALGFENATQALGRAAFGQGSGPIMLDEVQCTGTEASLADCKSLGWLKSNCRHERDAGVVCTNETRSTHTLDLSRELSEALGQIFDSQRGCDLSISVNVQGEDALGFCGHTVILTANLEAQALWKEPGSNVTMSVDAECVPMVRDLLRYFYSRRIDITLSSVKCFHKLASAYGARQLQGYCASLFAILLPQDPSFQMPLDLYAYAVATGDALLEKLCLQFLAWNFEALTQAEAWPSVPTDLLQLLLPRSDLAVPSELALLKAVDTWSWGERASHEEVEGLVEKIRFPMMLPEELFELQFNLSLYWSHEALFQKKTLQALEFHTVPFQLLARYKGLNLTEDTYKPRIYTSPTWSAFVTDSSWSARKSQLVYQSRRGPLVKYSSDYFQAPSDYRYYPYQSFQTPQHPSFLFQDKRVSWSLVYLPTIQSCWNYGFSCSSDELPVLGLTKSGGSDRTIAYENKALMLCEGLFVADVTDFEGWKAAIPSALDTNSSKSTSSFPCPAGHFNGFRTVIRPFYLTNSSGVD
Turning to B6, the “Difference (log2), PP1 vs untreated” value in assay [1] was determined as 1.074 log2. The “Difference (log2), untreated vs GFP” value in assay [2] is recorded as -0.5352 log2.

B7: CGN (protein, UniProt Q9P2M7 1-1203, looked up)
Cingulin: MEQAPNMAEPRGPVDHGVQIRFITEPVSGAEMGTLRRGGRRPAKDARASTYGVAVRVQGIAGQPFVVLNSGEKGGDSFGVQIKGANDQGASGALSSDLELPENPYSQVKGFPAPSQSSTSDEEPGAYWNGKLLRSHSQASLAGPGPVDPSNRSNSMLELAPKVASPGSTIDTAPLSSVDSLINKFDSQLGGQARGRTGRRTRMLPPEQRKRSKSLDSRLPRDTFEERERQSTNHWTSSTKYDNHVGTSKQPAQSQNLSPLSGFSRSRQTQDWVLQSFEEPRRSAQDPTMLQFKSTPDLLRDQQEAAPPGSVDHMKATIYGILREGSSESETSVRRKVSLVLEKMQPLVMVSSGSTKAVAGQGELTRKVEELQRKLDEEVKKRQKLEPSQVGLERQLEEKTEECSRLQELLERRKGEAQQSNKELQNMKRLLDQGEDLRHGLETQVMELQNKLKHVQGPEPAKEVLLKDLLETRELLEEVLEGKQRVEEQLRLRERELTALKGALKEEVASRDQEVEHVRQQYQRDTEQLRRSMQDATQDHAVLEAERQKMSALVRGLQRELEETSEETGHWQSMFQKNKEDLRATKQELLQLRMEKEEMEEELGEKIEVLQRELEQARASAGDTRQVEVLKKELLRTQEELKELQAERQSQEVAGRHRDRELEKQLAVLRVEADRGRELEEQNLQLQKTLQQLRQDCEEASKAKMVAEAEATVLGQRRAAVETTLRETQEENDEFRRRILGLEQQLKETRGLVDGGEAVEARLRDKLQRLEAEKQQLEEALNASQEEEGSLAAAKRALEARLEEAQRGLARLGQEQQTLNRALEEEGKQREVLRRGKAELEEQKRLLDRTVDRLNKELEKIGEDSKQALQQLQAQLEDYKEKARREVADAQRQAKDWASEAEKTSGGLSRLQDEIQRLRQALQASQAERDTARLDKELLAQRLQGLEQEAENKKRSQDDRARQLKGLEEKVSRLETELDEEKNTVELLTDRVNRGRDQVDQLRTELMQERSARQDLECDKISLERQNKDLKTRLASSEGFQKPSASLSQLESQNQLLQERLQAEEREKTVLQSTNRKLERKVKELSIQIEDERQHVNDQKDQLSLRVKALKRQVDEAEEEIERLDGLRKKAQREVEEQHEVNEQLQARIKSLEKDSWRKASRSAAESALKNEGLSSDEEFDSVYDPSSIASLLTESNLQTSSC
On to B7, for which, in assay [1], the “Difference (log2), PP1 vs untreated” value was found to be 1.065 log2. In addition, in assay [2], the “Difference (log2), untreated vs GFP” value stood at 1.896 log2.
